Here are results for four molecules from patent publication US20240252592A1 (TIANJIN INSTITUTE OF PHARMACEUTICAL RESEARCH, published 2024).

Numbered stars: 1 amine (or outer) side, 2 acyl side, 3 side chain; on linkers, the order of the positions; unused ones are H or OH. Square brackets hold non-standard residues; d marks the D form. Side chains are listed from the residue outwards. Ends that are not written are not given here. * marks the point of attachment. C18 diacid = O=C(O)CCCCCCCCCCCCCCCCC(=O)*; γGlu = O=C(O)[C@H](CCC(=O)[*:2])N[*:1]; AEEA = NCCOCCOCC(=O)O; Aib = CC(C)(N)C(=O)O

The target of one assay is GC receptor. As to the kind of experiment: cell-based or functional assay.
The next assay addresses human GLP-1 receptor (human, UniProt P43220 24-463). As to the kind of experiment: cell-based or functional assay.

For the molecule H[Aib]QGTFTSDK([AEEA-AEEA-γGlu-C18 diacid])SKYLEERAAKEFIAWLEAGGPSSG-NH2 (not fully specified; printed as HAibQGTFTSDK**SKYLEERAAKEFIAWLEAGGPSSG-Amid) [Compound 27], in the assay with GC receptor, the “EC50 of GC receptor mediated cAMP production” value was 0.014 nM. For the same molecule, the “EC50 of GLP-1 receptor mediated cAMP production” value with human GLP-1 receptor is 0.011 nM.

B1: Compound 26 (peptide)
peptide: HXQGTFTSDYSKYLEEKRAKEFVEWLLEAGGPSSG
HELM: PEPTIDE1{H.[Aib].Q.G.T.F.T.S.D.Y.S.K.Y.L.E.E.K.R.A.K.E.F.V.E.W.L.L.E.A.G.G.P.S.S.G.[am]}|PEPTIDE2{[CCCCCCCCCCCCCCCC(=O)[*:2]].[gGlu].[gGlu]}$PEPTIDE1,PEPTIDE2,20:R3-3:R2$$$V2.0; N-terminus assumed
SMILES: CCCCCCCCCCCCCCCC(=O)N[C@@H](CCC(=O)N[C@@H](CCC(=O)NCCCC[C@H](NC(=O)[C@H](C)NC(=O)[C@H](CCCNC(=N)N)NC(=O)[C@H](CCCCN)NC(=O)[C@H](CCC(=O)O)NC(=O)[C@H](CCC(=O)O)NC(=O)[C@H](CC(C)C)NC(=O)[C@H](Cc1ccc(O)cc1)NC(=O)[C@H](CCCCN)NC(=O)[C@H](CO)NC(=O)[C@H](Cc1ccc(O)cc1)NC(=O)[C@H](CC(=O)O)NC(=O)[C@H](CO)NC(=O)[C@@H](NC(=O)[C@H](Cc1ccccc1)NC(=O)[C@@H](NC(=O)CNC(=O)[C@H](CCC(N)=O)NC(=O)C(C)(C)NC(=O)[C@@H](N)Cc1c[nH]cn1)[C@@H](C)O)[C@@H](C)O)C(=O)N[C@@H](CCC(=O)O)C(=O)N[C@@H](Cc1ccccc1)C(=O)N[C@H](C(=O)N[C@@H](CCC(=O)O)C(=O)N[C@@H](Cc1c[nH]c2ccccc12)C(=O)N[C@@H](CC(C)C)C(=O)N[C@@H](CC(C)C)C(=O)N[C@@H](CCC(=O)O)C(=O)N[C@@H](C)C(=O)NCC(=O)NCC(=O)N1CCC[C@H]1C(=O)N[C@@H](CO)C(=O)N[C@@H](CO)C(=O)NCC(N)=O)C(C)C)C(=O)O)C(=O)O
Take B1: the “EC50 of GC receptor mediated cAMP production” value with GC receptor turned out to be 0.197 nM. Besides, the “EC50 of GLP-1 receptor mediated cAMP production” value with human GLP-1 receptor was 0.193 nM.

As to H[Aib]QGTFTSDYSKYLEERAAK([AEEA-AEEA-γGlu-C18 diacid])EFVEWLEGGPSSG-NH2 (not fully specified; printed as HAibQGTFTSDYSKYLEERAAK**EFVEWLEGGPSSG-Amid) [Compound 32], the “EC50 of GC receptor mediated cAMP production” value with GC receptor turned out to be 0.077 nM. Further, the “EC50 of GLP-1 receptor mediated cAMP production” value with human GLP-1 receptor came to 1.01 nM.

B2: Compound 36 (peptide)
peptide: HXQGTFTSDKSKYLXERAAKEFIXWLEAGGPSSG
modifications: not fully specified; Lys 10 side chain -Ado-Ado-γE-OC17H32COOH; C-terminal amide
For the molecule B2, in the assay with GC receptor, the “EC50 of GC receptor mediated cAMP production” value is 0.069 nM. For the same molecule, the “EC50 of GLP-1 receptor mediated cAMP production” value with human GLP-1 receptor was determined as 0.072 nM.
